Legend:
[1] = target: Dengue virus type 2 non-structural protein 1 (NS1) produced by DENV2-infected A549 cells (Dengue virus type 2) (UniProt P14340); test: SDS-PAGE of samples heated or not heated, then Western blot
[2] = target: recombinant DENV2-NS1^V5-tag (Dengue virus type 2) (UniProt P14340); test: as above

Substance	stoichiometry N [1]	stoichiometry N [2]
Dengue virus type 2 non-structural protein 1 (NS1) produced by DENV2-infected A549 cells (from UniProt P14340) (natural protein)	2	
recombinant DENV2-NS1^V5-tag (from UniProt P14340 776-1127) (natural protein)		2

Source: publication PMC9965858
